Test results as given in patent US20260022186A1.

Biological target: T1, human NT5E expressed on MDA-MB-231 cells (human) (UniProt P21589)
T1 sequence (looked up): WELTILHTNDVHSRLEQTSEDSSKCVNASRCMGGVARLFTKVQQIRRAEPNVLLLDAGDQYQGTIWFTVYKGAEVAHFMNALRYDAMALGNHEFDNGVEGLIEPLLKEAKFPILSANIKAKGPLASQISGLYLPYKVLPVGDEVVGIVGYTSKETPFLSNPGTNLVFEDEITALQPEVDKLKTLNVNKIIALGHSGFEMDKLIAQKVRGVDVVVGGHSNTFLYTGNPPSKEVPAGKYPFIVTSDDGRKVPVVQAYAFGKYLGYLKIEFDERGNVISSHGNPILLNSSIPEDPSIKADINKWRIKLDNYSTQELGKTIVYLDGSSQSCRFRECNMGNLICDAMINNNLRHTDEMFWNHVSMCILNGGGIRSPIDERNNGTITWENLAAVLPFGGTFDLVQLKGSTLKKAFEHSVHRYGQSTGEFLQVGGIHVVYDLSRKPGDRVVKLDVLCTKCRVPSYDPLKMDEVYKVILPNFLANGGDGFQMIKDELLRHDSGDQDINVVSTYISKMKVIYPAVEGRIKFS
Test: cell-based or functional assay

IC50 of inhibition of NT5E on MDA-MB-231 cells, ATP: 1.1 nM
IC50 of inhibition of NT5E on MDA-MB-231 cells, no ATP: 0.6 nM
Substance: BMS986179 IgG (antibody)
